In this experiment the target is T1, PcrV (130–263) (Pseudomonas aeruginosa, UniProt G3XD49).
T1 construct: PcrV, type III secretion system needle-tip protein of Pseudomonas aeruginosa, residues 130Ala-263Asn; also called recombinant PcrV (130–263); partial PcrV (130–263); source: E. coli, purified (Profinity eXact Fusion-Tag system, Superdex75)
The experiment is described as follows: crystal structure; h1F3 Fab and PcrV (130-263) mixed at a molar ratio of 1:2 in TBS with 0.5 mM TCEP at 4°C overnight, equimolar complex separated by Superdex200; crystals by sitting drop in 0.1 M acetate-Na pH 5.6, 24% PEG3350, 0.125 M CaCl2 at 20°C. Conditions: both partners purified.

B1: h1F3 Fab (Fab, V domains shown)
VH: QVQLVQSGAEVKKPGASVKVSCKASGYSFTSYWMHWVRQAPGQGLEWMGEINPSNGRTNYNEKFNTRVTMTRDTSTSTVYMELSSLRSEDTAVYYCVLYGNYVVYYTMDYWGQGTTVTVSS
VL: DIQLTQSPSFLSASVGDRVTITCSASTSVSYMEWYQQKPGKAPKLLIYTTSKLASGVPSRFSGSGSGTEFTLTISSLQPEDFATYYCHQWRNYPFTFGQGTKLEIK
notes: Fab part of the heavy chain of h1F3 (humanized from mouse m1F3 by CDR grafting with H93 and H94 back-mutation, human IgG4Pro format); light chain of h1F3 (has the mouse residue Ala at L128); also called Fab fragment of h1F3; pre-optimized COT-143 (Fab); source: papain digestion of h1F3, purified (HiTrap Protein A flow-through, Mono S, Superdex200)
Consider B1, for which the binding result was “binds”.

Source of the values: PMC11459929, “Novel humanized anti-PcrV monoclonal antibody COT-143 protects mice from lethal Pseudomonas aeruginosa infection via inhibition of toxin translocation by the type III secretion system” (Antimicrobial Agents and Chemotherapy, 2024).
